# Values quoted from earlier work as cited in publication PMC4540356 (Thrombosis and haemostasis, 2010).
# B1: nicotinomide phosphoribosyltransferase/pre-B cell colony-enhancing factor (protein, UniProt P43490 1-491, looked up)
# Nicotinamide …: MNPAAEAEFNILLATDSYKVTHYKQYPPNTSKVYSYFECREKKTENSKLRKVKYEETVFYGLQYILNKYLKGKVVTKEKIQEAKDVYKEHFQDDVFNEKGWNYILEKYDGHLPIEIKAVPEGFVIPRGNVLFTVENTDPECYWLTNWIETILVQSWYPITVATNSREQKKILAKYLLETSGNLDGLEYKLHDFGYRGVSSQETAGIGASAHLVNFKGTDTVAGLALIKKYYGTKDPVPGYSVPAAEHSTITAWGKDHEKDAFEHIVTQFSSVPVSVVSDSYDIYNACEKIWGEDLRHLIVSRSTQAPLIIRPDSGNPLDTVLKVLEILGKKFPVTENSKGYKLLPPYLRVIQGDGVDINTLQEIVEGMKQKMWSIENIAFGSGGGLLQKLTRDLLNCSFKCSYVVTNGLGINVFKDPVADPNKRSKKGRLSLHRTPAGNFVTLEEGKGDLEEYGQDLLHTVFKNGKVTKSYSFDEIRKNAQLNIELEAAHH
# Tested on: endothelial cells
# Conditions: via activation of ERK1/2 and Akt, ref [39]
molecule,measurement,value
B1,peNOS and NO induction in endothelial cells,induce peNOS and NO in endothelial cells
